Data as given in US20050187156A1 (Stanford University, published 2005).

Biological target: T1, GST-εRACK (human εRACK expressed as a GST fusion protein) (human, UniProt P35606 1-906)
T1 construct: 10 ng was immobilized on Glutathione-Sepharose 4B beads; also called immobilized GST-εRACK; not shown: glutathione S-transferase (GST) tag of baculovirus vector PacG3X (BD Biosciences)
T1 sequence (looked up): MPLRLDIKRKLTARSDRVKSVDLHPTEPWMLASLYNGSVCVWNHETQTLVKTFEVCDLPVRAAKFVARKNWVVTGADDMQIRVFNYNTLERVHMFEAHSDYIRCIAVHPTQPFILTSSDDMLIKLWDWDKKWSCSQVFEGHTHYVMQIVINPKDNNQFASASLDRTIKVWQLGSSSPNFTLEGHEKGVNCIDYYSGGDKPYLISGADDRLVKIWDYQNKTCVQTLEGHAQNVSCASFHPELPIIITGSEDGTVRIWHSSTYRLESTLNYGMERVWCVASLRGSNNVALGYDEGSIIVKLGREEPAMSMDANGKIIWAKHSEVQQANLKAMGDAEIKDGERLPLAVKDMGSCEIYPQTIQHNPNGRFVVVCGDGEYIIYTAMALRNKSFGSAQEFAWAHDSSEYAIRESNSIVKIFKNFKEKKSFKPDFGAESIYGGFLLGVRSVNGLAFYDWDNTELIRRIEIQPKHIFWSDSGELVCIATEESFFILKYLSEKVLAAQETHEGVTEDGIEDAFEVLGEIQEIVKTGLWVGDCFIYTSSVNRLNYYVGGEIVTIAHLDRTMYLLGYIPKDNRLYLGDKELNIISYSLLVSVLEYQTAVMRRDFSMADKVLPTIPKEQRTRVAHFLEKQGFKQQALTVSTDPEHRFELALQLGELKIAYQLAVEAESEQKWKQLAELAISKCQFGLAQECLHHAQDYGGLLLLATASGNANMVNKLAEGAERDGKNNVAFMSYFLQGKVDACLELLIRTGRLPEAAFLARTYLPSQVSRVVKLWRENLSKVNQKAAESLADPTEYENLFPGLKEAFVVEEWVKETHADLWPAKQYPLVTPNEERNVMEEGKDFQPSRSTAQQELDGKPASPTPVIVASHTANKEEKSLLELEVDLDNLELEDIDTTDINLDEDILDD
Assay: pull-down of insect cell-expressed εPKC on GST-εRACK immobilized on glutathione-Sepharose beads, no phospholipid activators, Western blot with anti-εPKC V5
Procedure: RACKs bind active PKC [Mochly-Rosen, D. & Gordon, A. S., FASEB J. 12:35-42 (1998); Mochly-Rosen, D. et al., Molec. Biol. Cell. (formerly Cell Regulation) 1:693-706 (1990).
Insect cells expressing either εPKC or GST-εRACK were lysed as described in Example 4. GST-εRACK, 10 ng was immobilized on Glutathion-Sepharose 4B beads (Amersham-Pharmacia), and washed thoroughly with wash buffer (20 mM Tris-HCl pH 7.5, 2 mM EDTA, 100 mM NaCl, 12 mM pME, and 0.1% TritonX-100). Immobilized GST-εRACK was then incubated with the soluble fraction of insect cell lysates containing 100 ng Wt, D(86)A, or D(86)N εPKC protein, in the presence or absence of phospholipid activators (PL) (phosphatidylserine 12 μg/reaction and, Sn-1,2 dioleoylglycerol 400 ng/reaction) for 1 hour at 4° C. Upon thorough washing with wash buffer, bound proteins were eluted in SDS-PAGE sample buffer and proteins separated on 8% SDS-PAGE gels. The amount of εPKC interacting with εRACK was determined by Western blot probing for εPKC with anti εPKC-V5 antibodies. Blots were then re-probed with ant-GST (Santa Cruz) to verify that the same amount of GST-εRACK was present in each binding assay. All other methods for this Example were performed as described, for example, in Example 4.

fold binding relative to D(86)N or Wt εPKC (absence of PL activators): ≥ 2 fold
B1: D(86)A εPKC mutant (enzyme, human, UniProt Q02156 1-737, looked up)
chain: MVVFNGLLKIKICEAVSLKPTAWSLRHAVGPRPATFLLDPYIALNVDDSRIGQTATKQKTNSPAWHDEFVTDVCNGRKIELAVFHAAPIGYDDFVANCTIQFEELLQNGSRHFEDWIDLEPEGRVYVIIDLSGSSGEAPKDNEERVFRERMRPRKRQGAVRRRVHQVNGHKFMATYLRQPTYCSHCRDFIWGVIGKQGYQCQVCTCVVHKRCHELIITKCAGLKKQETPDQVGSQRFSVNMPHKFGIHNYKVPTFCDHCGSLLWGLLRQGLQCKVCKMNVHRRCETNVAPNCGVDARGIAKVLADLGVTPDKITNSGQRRKKLIAGAESPQPASGGSPSEEDRSKSAPTSPCDQEIKELENNIRKALSFDNRGEEHRAASSPDGQLMSPGENGEVRQGQAKRLGLDEFNFIKVLGKGSFGKVMLAELKGKDEVYAVKVLKKDVILQDDDVDCTMTEKRILALARKHPYLTQLYCCFQTKDRLFFVMEYVNGGDLMFQIQRSRKFDEPRSRFYAAEVTSALMFLHQHGVIYRDLKLDNILLDAEGHCKLADFGMCKEGILNGVTTTTFCGTPDYIAPEILQELEYGPSVDWWALGVLMYEMMAGQPPFEADNEDDLFESILHDDVLYPVWLSKEAVSILKAFMTKNPHKRLGCVASQNGEDAIKQHPFFKEIDWVLLEQKKIKPPFKPRIKTKRDVNNFDQDFTREEPVLTLVDEAIVKQINQEEFKGFSYFGEDLMP
notes: Used as the soluble fraction of a Hi5 insect cell lysate containing 100 ng εPKC protein; also called D(86)A ΨεRACK mutant; A mutant
